Experiment: yeast display, Sf9 membrane polyspecificity reagent, FACS + sequencing; frameworks hold sequencing errors
In short: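 Genes from sorted yeast were amplified by colony PCR, read by MiSeq 2 × 250 sequencing and filtered on CDR length. These cells carried a synthetic nanobody library in Saccharomyces cerevisiae BJ5465 and were sorted by FACS into low and high (top ~1%) gates on anti-HA and streptavidin fluorescence. Polyreactivity is labelled according to the gate of origin.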

Sequence | polyreactivity (PSR sort gate)
QVQLVESGGGLVQAGGSLRLSCAASGIIFHRYAMGWYRQAPGKERELVAAISWNGGSTYYADSVKGRFTISRDNAKNTVYLQMNSLKPEDTAVYYCAARKLYSNISGYWGQGTLVTVSS | high polyreactivity
QVQLVESGGGLVQAGGSLRLSCAASGSTFVWYAMGWYRQAPGKERELVAVINWSAGRTYYADSVKGRFTFSRDTAKNTVYLQMNSLKPEDTAVYYCATRTYYRSRTVGWGKMDYWGQGTQVTVSS | high polyreactivity
QVQLVESGGGLVQAGGSIRLSCAASGYTFVTNAMGWYRPAPGKERELVAAITTVGSTNYADSGKGRFTISRDNAKNTVYLQMNSLKPEDTAVYYCNANWYEWYGWGQGTQVTVSS | low polyreactivity
QVQLVESGGGLVQAGGSLRLSCAASGSIFPYYAMGWYRKAPGKERELVAAISSSGGSTTYADSVKGRFTISRDHAKNTVYLQMNSLKPEDTAVYYCAALTYRRSSGGFDYWGQGTQVTVSS | high polyreactivity
QVQLVESGGGLVQAGGSLRLSCAASGRTFKGNAMGWYRQAPGKERKLVAVITGSGGSTYYADSVKGRFTISRDNAKNTVYLQMNSLKPEDTAVYYCAAESEPIRIRERDYWGQGTHVTVSS | low polyreactivity
QVQLVESGGGLVQAGGSLRLSCAASGRTFKYYAMGWYRQAPGKERELVAAISYNGGSTFYADSVKGRFTISRDNAKNTVYLQMNSLKPVDTAVYYCAAGPRGTGKYYWGQGTQVTVSS | high polyreactivity
QVQLVESGGGLVQAGGSLRLSCAASGSIFYINAMGWYRQAPGKERELVAAITWRGAGTYYADSVKGRFTISRDNAKNTVYLQMNSLKPEDTAVYYCAADDSPWRVPRNYWGQGTQVTVSS | low polyreactivity
QVQLVESGGGLVQAGGSLRLSCAASGVIFYVYAMGWYRQAPGKERELVAAISADGGITYYADSVKGRFTISRDNAKNTVYLQMNSLKPEDTAVYYCAADYYGSVQGGIQYGYYYWGQGTQVTVSS | low polyreactivity
QVQLVESGGGLVQAGGSLRLSCAASGRIFYTNAMGWYRKAPGKERELVAGITCSGDSTYYADSVKGRFTISRDNAKNTVYLQMNSLKPEDTPVYYCAARWRYVLMDYWGQGNQVTVSS | low polyreactivity
QVQLVESGGGLVQAGGSLRLSCAASGITFQRYVLGWYRQAPGKERELVAAISFTASSTYYADSVKGRFTISRDYAKKTVYLQMNSLKPEDTAVYYCAADGSVPKYVPYPRYYGYGYWGQGTQVTVSS | high polyreactivity
QVQLVESGGGLVQAGGSLRLSCAASGRIFRYYTMGWYRQAPGKERELVAAIRLAGSTTYYADSVKGRFTISRDNAKNTVYLQMNSLNPEDSAVYSCTTRYPVPSGYDYWGHGTQVTVSS | high polyreactivity
QVQLVESGGGLVQAGGSLRLSCAASGSTFAANAMGWYRQAPGKERELVATISYRGGSTYYADSVKGRFTISRDNAKNTVYLQMNSLKPEDTAVYYCAAKLYYAFYSRYNYWGQGTQVTVSS | high polyreactivity
QVQLVESGGGLVQAGGSLRLSCAASGGTFWYYAMGWYRQAPGKEREFVAAISSRGGNTYYADSVKGRFTISRDNAKNTVYLQMNSLKPEDTAVYYCNAKTHRRYSENYYWGQGTQVTVSS | high polyreactivity
QVQLVESGGCLVQAGGSLRLRCAASGPNFPGYTKGWYRHAPRKAREFVAAISYSGGSTYADSVKGRFTISRDNAKNTVYLQMNSLKPEDTSVYYCAVFLQHWLDMYYWGQGTQVNVSS | low polyreactivity
QVQLVESGGGLVQAGGSLRLSCAASGFIFTPYAKGWYRQAPGKERELVAAISSGGSTYADSVKGRFTISRDNAKNTVYLQMNSLKPEDTAVYYCAAYYTGYSTTYYYWGQGTQVSVSS | low polyreactivity
QVQLVESGGGLVQAGGSLRLTCAASGRTFIVYAMGWYRQAPGKERELVARISSGSRTSYADSVTGRFTISRDNAKNTVYLQMNSLKPEDTAVYYFAKSRVIKYEFDYWGQGTQVTLSS | low polyreactivity
QVQLVESGGGLVQAGGSLRLSCAASGYTFYFYAMGWYRQAPGKERELVASITWRGGSTYYADSVKGRFTISRDNAKNTVYLQMNSLKPEDTAVYYCAKQVYYIYDYWGQGTQVTVSS | low polyreactivity
QVQLVESGGGLVQAGGSLRLSCADSGSTFYPYAMGWYRQAPGKEREFVAAISRGGTTTYYADSVKGRFTISRDNAKNTVYLQMNSLKPEDTAVYYCAARYVSVYRWTYDYWGQGTQVTVSS | high polyreactivity
QVQLVESGGGIVQAGGSLRLSCAASGSIFYPYVMGWYRQAPGKERELVAAITTSVGSTYYADSVKGRFTISRDHAKNTVYLQMNSLKPEDTAVYYCAAKYFGSRRPGRYNYWGQGTQVTVSS | high polyreactivity
QVQLVESGGGLVQAGGSLRLSCAASGRIFGNNVMGWYRQAPGKERELVASINYSGGSTYYADSVKGRFTISRDNAKNTVYLQMNSLKPEDTAVYYCARSYGWYPWRTSYTVGFYYWGQGTQVTVSS | high polyreactivity
QVQLVESGGGLVQAGGSLRLSCAASGRIFKRYAMGWYRQAHGKERELVASITWSGGSTYYADSVKGRFTISRDNAKNTVYLQMNSLKPEDTEVYYCAARRTATTSRAYYYWGQGTQVTVSS | high polyreactivity
QVQLVESGGGLVQAGGSLRLSCAASGSTFEYYVMGWYRQAPGKERELVAAISGSGGGTYYADSVKGRFTISRDNEKNTVYLQMNSLKPEDTAVYYCAAVATQEKYDYWGQGTQVTVSS | low polyreactivity

Sequence | polyreactivity (PSR sort gate)
QVQLVESGGGLVQAGGSLRLSCAASGRTFYSYAMGWYRQAPGKERELVAAINTSGGRTHYADSVKGRFTISRDNAKNTVYLQMNCMKPEDTAVYYCAKLARSGTLTYYYWGQGTQVNVSS | high polyreactivity
QVQLVESGGGLVQAGGSLRLSYAASGFIFRYYAMGWYRQAPGKERELVAAIKASGGRTYYADSVKGRFTISRDNERNTVYLQINSLKPEDTAVYYCAASRSYQTFDYWGQGTQVTVSS | high polyreactivity
QVQLVESGGGLVQAGGSLRLSCAASGSIFWSNAMGWYRQAPGKESELVATIDDDVGSTYYADSVMGRFTISRDNAKNTVYLQMNSLKPEDTAVYYCAADSVYYVIPYEYWGQGTQVTVSS | low polyreactivity
QVQLVESGGGLVQAGGSLRLSCAASGGTFPYNAMGWYRQAPGKERELVAVITSGDGTYYADSVKGRFTISRDNAKNTVYLQMNSLKPEDTAVYYCAADYVVWFSFVYVVEYDYWGQGTQVTVSS | low polyreactivity
QVQLVESGGGLVQAGGSLRLSCAASGRIFTTYAMGWYRQAPGKERELVATITTTDTRTYADSVKGRFTISRDNAKNTVYLQMNSLKPEDTAVYYCAKDRLNKGRYYRAASDYWGQGTQVTVSS | low polyreactivity
QVQLVESGGGLVQAGGSLSLSCAASGFIITRNAMGWYRQAPGKEWEFVARISRSSGSTYYADSVKGRFTISRDNAKITVYLKMKSLTPDDTAVYYCNTRVAGIYGFGSYDDWGQGTQVTVSS | high polyreactivity
QLQLVESGGGLVQAGASLRLSCAASGSILWPSARGWYRQAPGKERELVAAISTGGSTYYADSVKGRFTISRDNAKNTVYLQMNSLKPEDTAVYYCAAYVDYSVYFGGGYWGQGTQVTVSS | low polyreactivity
QVQLVESGGGLVQAGGSLRLSCAASGFTIGYNVMGWYREAAGKERELVATISWNGARTYYADSVKGRFTISRDNAKNTVYLQMNSLKPEDTAVYYCAARRYYRGEYDYWGQGTQVTVSS | low polyreactivity
QVQLVESGGGLVQAGGSLRLSCAASGLIFSSYAMGWYRQAPGKERELVAAISGSGGSTYYADSEKGRFTISRDNAKNTVYLQMNSLKPEDTAVYYCAAELDDYWVVSEDSSGQGTQVTVSS | low polyreactivity
QVQLVESGGGLVQAGGSLRLSCAASGSTLAVYSMGWYRQAPGKEREFVAAISWSGVSTYYADSVKGRFTISRDNAKNTVYLQMNSLKPEDTAVYYCAAKRVRALYGGSEGGYWGQGTQVTVSS | low polyreactivity
QVQIVESGGGLVQAGGSLRLSCAASGSTSYRYAMGWYRQATGQERALVAAIPWISDSTYYADSVKGRFTISRDNAKNTVYLQMNSLKPEDTAVYYCNTDPLVTSVTFNYWGQGTQVTVSS | low polyreactivity
QVQLVESGGGLVQAGGSLRLSCAASGSTFEVYAMGWYRQAPGKERELVAAINSRGTSTYYADSVKGRFTISRDNAKNTVYLQMNSLKPEDTAVYYCNAVRDWGPSQVYDGMDYWGQGTQVTVSS | low polyreactivity
QVQLVESGGGLDQAGGSLRLSCAASGFIFRAYAMGLYRQAPGKERELVAAISWGGGSTYYADSVKGRFTISRDNAKNTVYLQMNSLKPEDTAVYYCAAEYEAYAYEYWGQGTQVTVSS | high polyreactivity
QVQLVESVGGLVQAGGSLRLTCAACGVTFSYNTMGWYRQAPGKERELVAAISRSGGRTYYADSVKGRFTISRDNAKNTVYLQMNSLKPEDTAVYYCARYSVTGFGANSGPEMDYWGHGTQVTVSS | high polyreactivity
QIQLVESCGGLVQPGGSLRLSCAASGFTFYRYSRGWYRQAPGKERELVAPISTSGVSTYYADSVKGRFTISRDNAKNTVYLQMNSLKPEDTAVYYWAASAGPRASYYYWGQGTQVTVSS | high polyreactivity
QVQLVESGGGLVQAGGSLRLSCAASGSTFWINTMGWYRQAPGKERELVAAITRSGGNTYYADSVKGRFTISRDNAKNTVYLQMNSLKPEDTAVYYCAAAYTRKYVTHGYWGQGTQVTVSS | high polyreactivity
QVQLVESGGGLVQAGGSLRLSCAASGSTFPSYAMGWYRQAPGKERELVAAINSGGGTNYADSVKGRFTISRDNAKNTVYLQMNSLKPEDTAVYYCATDDPLSQINEQGMDYWGQGTQVTVSS | low polyreactivity
QVQLVESGGGLVQAGASLSLSCAASGRTFGGNAMGWYRQAPGKEREFVAAISRSGTSTYYADSVKGRFTISRDNAKNTVYFQMNSLKPEATAVYYCAALNYLKFAHKYDYWGQGTQVTVSS | low polyreactivity
QVQLVESGGGLVQAGGSLRLSCAASGSTFRYNTMGWYRQAPGKEREFVAAISQSGGSTYYADSVKGRFTISRDNAKNTVYLQMNSLKPEDTAVYYCNARPFYATYRYRGYSWGQGTQVTVSS | high polyreactivity
QVQLVESGGGLVQAGGSLRLSCAASGFTFSFYAMGWYRQAPGKERELVAAITSRGTSTYYADSVKGRFTISRDNAKNTVYLQMNSLKPEDTEVYYCAKLLPRGQWPYDYWGQGTQVTVSS | high polyreactivity
QVQLVESGGGLVQAGGSLRLSCAASGRPFRLNGMGWYRQAPGKERELVAAITWSGGRTYYADSVKGRFTISRDNAKTTVYLQMNSLKPEDTAVYDCAADYRYKSHWWYRRFDYWGQGTQVTVSS | high polyreactivity
